Data as given in the array DNA melting data of Ke et al..

Test: melting temperature; melt of duplexes
Settings: sodium 0.0675 M; strand 1 µM

“CGACGTGCATAATGTGCTG+CAGCACATTACGCACGTCG ((((((((.((((((((((+)))))))))).))))))))” gave a Tm of 54.4 °C.
For “CGACGTGCGACATGTGCTG+CAGCACATAGTGCACGTCG ((((((((...((((((((+))))))))...))))))))”, the Tm was 48.8 °C.
“CGACGTGCTTCATGTGCTG+CAGCACATGTCGCACGTCG ((((((((..(((((((((+)))))))))..))))))))” gave a Tm of 52.2 °C.
In the case of “CGACGTGCCTGATGTGCTG+CAGCACATGCCGCACGTCG ((((((((...((((((((+))))))))...))))))))”, the Tm is reported as 47.5 °C.
With “CGACGTGCTCGATGTGCTG+CAGCACATACAGCACGTCG (((((((((..((((((((+))))))))..)))))))))” the Tm was 51.8 °C.
“CGACGTGCAATATGTGCTG+CAGCACATACAGCACGTCG ((((((((..(((((((((+)))))))))..))))))))” gave a Tm of 50.3 °C.
In the case of “CGACGTGCTGTATGTGCTG+CAGCACATCTGGCACGTCG ((((((((...((((((((+))))))))...))))))))”, the Tm is reported as 50.9 °C.
“CGACGTGCCTTATGTGCTG+CAGCACATTGCGCACGTCG ((((((((...((((((((+))))))))...))))))))” gave a Tm of 48.4 °C.
For “CGACGTGCCATATGTGCTG+CAGCACATGACGCACGTCG ((((((((...((((((((+))))))))...))))))))”, the Tm was 45.5 °C.
Substance “CGACGTGCGGGATGTGCTG+CAGCACATGAGGCACGTCG ((((((((...((((((((+))))))))...))))))))” has a Tm of 51.9 °C.
With “CGACGTGCTTGATGTGCTG+CAGCACATAAAGCACGTCG ((((((((((.((((((((+)))))))).))))))))))” the Tm was 57.7 °C.
“CGACGTGCCGGATGTGCTG+CAGCACATGCGGCACGTCG ((((((((((.((((((((+)))))))).))))))))))” gave a Tm of 62.6 °C.
Substance “CGACGTGCGTGATGTGCTG+CAGCACATTAAGCACGTCG ((((((((.(.((((((((+)))))))).).))))))))” has a Tm of 54.5 °C.
In the case of “CGACGTGCGGTATGTGCTG+CAGCACATGACGCACGTCG (((((((((..((((((((+))))))))..)))))))))”, the Tm is reported as 56.6 °C.
Work on “CGACGTGCGGGATGTGCTG+CAGCACATACGGCACGTCG ((((((((.(.((((((((+)))))))).).))))))))” yielded a Tm of 55.6 °C.
For “CGACGTGCTAAATGTGCTG+CAGCACATATAGCACGTCG ((((((((((.((((((((+)))))))).))))))))))”, the Tm was 55.4 °C.
“CGACGTGCAGGATGTGCTG+CAGCACATTTAGCACGTCG ((((((((...((((((((+))))))))...))))))))” showed a Tm of 50.3 °C.
With “CGACGTGCCGGATGTGCTG+CAGCACATCAGGCACGTCG (((((((((.(((((((((+))))))))).)))))))))” the Tm was 62.6 °C.
Work on “CGACGTGCGAGATGTGCTG+CAGCACATAATGCACGTCG ((((((((...((((((((+))))))))...))))))))” yielded a Tm of 52 °C.
“CGACGTGCAATATGTGCTG+CAGCACATATTGCACGTCG (((((((((((((((((((+)))))))))))))))))))” gave a Tm of 61.2 °C.
“CGACGTGCTGGATGTGCTG+CAGCACATTGTGCACGTCG ((((((((...((((((((+))))))))...))))))))” showed a Tm of 48.3 °C.
Substance “CGACGTGCGCGATGTGCTG+CAGCACATAAAGCACGTCG ((((((((...((((((((+))))))))...))))))))” has a Tm of 54 °C.
“CGACGTGCAGAATGTGCTG+CAGCACATTAGGCACGTCG ((((((((..(((((((((+)))))))))..))))))))” showed a Tm of 54.1 °C.
For “CGACGTGCAAAATGTGCTG+CAGCACATAAAGCACGTCG ((((((((...((((((((+))))))))...))))))))”, the Tm was 50.8 °C.
In the case of “CGACGTGCTTTATGTGCTG+CAGCACATTACGCACGTCG ((((((((.(.((((((((+)))))))).).))))))))”, the Tm is reported as 48.7 °C.
In the case of “CGACGTGCATTATGTGCTG+CAGCACATCCCGCACGTCG ((((((((...((((((((+))))))))...))))))))”, the Tm is reported as 46.1 °C.
Substance “CGACGTGCCATATGTGCTG+CAGCACATACAGCACGTCG ((((((((..(((((((((+)))))))))..))))))))” has a Tm of 49.9 °C.
Work on “CGACGTGCGCTATGTGCTG+CAGCACATGTCGCACGTCG (((((((((..((((((((+))))))))..)))))))))” yielded a Tm of 54.8 °C.
“CGACGTGCTATATGTGCTG+CAGCACATCATGCACGTCG ((((((((...((((((((+))))))))...))))))))” gave a Tm of 50.2 °C.
Substance “CGACGTGCAGTATGTGCTG+CAGCACATGCAGCACGTCG ((((((((.(.((((((((+)))))))).).))))))))” has a Tm of 54.7 °C.
For “CGACGTGCTCAATGTGCTG+CAGCACATACAGCACGTCG (((((((((..((((((((+))))))))..)))))))))”, the Tm was 50.7 °C.
“CGACGTGCTTGATGTGCTG+CAGCACATTTGGCACGTCG ((((((((...((((((((+))))))))...))))))))” showed a Tm of 50.8 °C.
Work on “CGACGTGCCTCATGTGCTG+CAGCACATAGCGCACGTCG ((((((((...((((((((+))))))))...))))))))” yielded a Tm of 49.6 °C.
With “CGACGTGCCCGATGTGCTG+CAGCACATCTAGCACGTCG ((((((((..(((((((((+)))))))))..))))))))” the Tm was 52.9 °C.
In the case of “CGACGTGCTACATGTGCTG+CAGCACATGCAGCACGTCG (((((((((.(((((((((+))))))))).)))))))))”, the Tm is reported as 58.1 °C.
In the case of “CGACGTGCGGTATGTGCTG+CAGCACATGCTGCACGTCG ((((((((.(.((((((((+)))))))).).))))))))”, the Tm is reported as 56.1 °C.
Substance “CGACGTGCTCTATGTGCTG+CAGCACATCATGCACGTCG ((((((((...((((((((+))))))))...))))))))” has a Tm of 48.5 °C.
In the case of “CGACGTGCGTGATGTGCTG+CAGCACATTTAGCACGTCG ((((((((...((((((((+))))))))...))))))))”, the Tm is reported as 53.6 °C.
For “CGACGTGCAGAATGTGCTG+CAGCACATAATGCACGTCG (((((((((..((((((((+))))))))..)))))))))”, the Tm was 54.2 °C.
In the case of “CGACGTGCGGGATGTGCTG+CAGCACATCACGCACGTCG (((((((((.(((((((((+))))))))).)))))))))”, the Tm is reported as 63.8 °C.
Work on “CGACGTGCTGCATGTGCTG+CAGCACATCGCGCACGTCG ((((((((...((((((((+))))))))...))))))))” yielded a Tm of 52.6 °C.
With “CGACGTGCCTGATGTGCTG+CAGCACATGCAGCACGTCG ((((((((...((((((((+))))))))...))))))))” the Tm was 50.4 °C.
Substance “CGACGTGCCCGATGTGCTG+CAGCACATTGAGCACGTCG ((((((((.(.((((((((+)))))))).).))))))))” has a Tm of 53.6 °C.
Work on “CGACGTGCCGGATGTGCTG+CAGCACATATAGCACGTCG ((((((((...((((((((+))))))))...))))))))” yielded a Tm of 49.9 °C.
For “CGACGTGCGAAATGTGCTG+CAGCACATCGGGCACGTCG ((((((((...((((((((+))))))))...))))))))”, the Tm was 48.6 °C.
Substance “CGACGTGCTGCATGTGCTG+CAGCACATGGCGCACGTCG ((((((((..(((((((((+)))))))))..))))))))” has a Tm of 55.3 °C.
For “CGACGTGCGAGATGTGCTG+CAGCACATTGGGCACGTCG ((((((((...((((((((+))))))))...))))))))”, the Tm was 51.9 °C.
Work on “CGACGTGCGAAATGTGCTG+CAGCACATTCGGCACGTCG ((((((((..(((((((((+)))))))))..))))))))” yielded a Tm of 53.7 °C.
For “CGACGTGCACCATGTGCTG+CAGCACATTAAGCACGTCG ((((((((...((((((((+))))))))...))))))))”, the Tm was 43.9 °C.
Work on “CGACGTGCCTTATGTGCTG+CAGCACATCCTGCACGTCG ((((((((...((((((((+))))))))...))))))))” yielded a Tm of 47.2 °C.
“CGACGTGCTAGATGTGCTG+CAGCACATCCGGCACGTCG ((((((((..(((((((((+)))))))))..))))))))” showed a Tm of 55.4 °C.
Work on “CGACGTGCTTCATGTGCTG+CAGCACATATTGCACGTCG ((((((((...((((((((+))))))))...))))))))” yielded a Tm of 49.1 °C.
Substance “CGACGTGCTGTATGTGCTG+CAGCACATGGTGCACGTCG ((((((((...((((((((+))))))))...))))))))” has a Tm of 47.2 °C.
For “CGACGTGCCGAATGTGCTG+CAGCACATCGAGCACGTCG ((((((((...((((((((+))))))))...))))))))”, the Tm was 55.3 °C.
Work on “CGACGTGCGATATGTGCTG+CAGCACATTCTGCACGTCG ((((((((...((((((((+))))))))...))))))))” yielded a Tm of 51.5 °C.
“CGACGTGCAGAATGTGCTG+CAGCACATTCGGCACGTCG ((((((((.((((((((((+)))))))))).))))))))” showed a Tm of 59.9 °C.
Substance “CGACGTGCGAAATGTGCTG+CAGCACATCAAGCACGTCG ((((((((...((((((((+))))))))...))))))))” has a Tm of 52.3 °C.
For “CGACGTGCAGGATGTGCTG+CAGCACATAACGCACGTCG ((((((((...((((((((+))))))))...))))))))”, the Tm was 50.8 °C.
“CGACGTGCTCGATGTGCTG+CAGCACATAACGCACGTCG ((((((((...((((((((+))))))))...))))))))” gave a Tm of 49 °C.
For “CGACGTGCTCTATGTGCTG+CAGCACATACGGCACGTCG ((((((((..(((((((((+)))))))))..))))))))”, the Tm was 49.7 °C.
Work on “CGACGTGCACCATGTGCTG+CAGCACATTCAGCACGTCG ((((((((...((((((((+))))))))...))))))))” yielded a Tm of 42.6 °C.
With “CGACGTGCTGAATGTGCTG+CAGCACATGCTGCACGTCG ((((((((.(.((((((((+)))))))).).))))))))” the Tm was 53.5 °C.
In the case of “CGACGTGCAATATGTGCTG+CAGCACATTACGCACGTCG ((((((((...((((((((+))))))))...))))))))”, the Tm is reported as 49.7 °C.
In the case of “CGACGTGCCACATGTGCTG+CAGCACATAGGGCACGTCG (((((((((..((((((((+))))))))..)))))))))”, the Tm is reported as 54.7 °C.
Work on “CGACGTGCCGCATGTGCTG+CAGCACATGTGGCACGTCG (((((((((.(((((((((+))))))))).)))))))))” yielded a Tm of 62.9 °C.
With “CGACGTGCGGAATGTGCTG+CAGCACATTTGGCACGTCG ((((((((..(((((((((+)))))))))..))))))))” the Tm was 54.6 °C.
Substance “CGACGTGCTAAATGTGCTG+CAGCACATGGTGCACGTCG ((((((((...((((((((+))))))))...))))))))” has a Tm of 49.9 °C.
For “CGACGTGCTTGATGTGCTG+CAGCACATTTCGCACGTCG ((((((((...((((((((+))))))))...))))))))”, the Tm was 48.5 °C.
For “CGACGTGCGTAATGTGCTG+CAGCACATCATGCACGTCG ((((((((.(.((((((((+)))))))).).))))))))”, the Tm was 52.3 °C.
For “CGACGTGCTTAATGTGCTG+CAGCACATGCAGCACGTCG (((((((((..((((((((+))))))))..)))))))))”, the Tm was 52 °C.
With “CGACGTGCGCGATGTGCTG+CAGCACATAAGGCACGTCG ((((((((...((((((((+))))))))...))))))))” the Tm was 50 °C.
“CGACGTGCGTGATGTGCTG+CAGCACATTTTGCACGTCG ((((((((...((((((((+))))))))...))))))))” gave a Tm of 50.7 °C.
